The target in test [1] is cynomolgus monkey IL-21 (cynomolgus monkey). In words: cell-based or functional assay.
The target in another test is mouse IL-21 (mouse) (UniProt Q9ES17). The test can be described thus: cell-based or functional assay.
Another test concerns the target rabbit IL-21 (rabbit). In words: cell-based or functional assay.
For test [2], the target named is human IL-21 (human) (UniProt Q9HBE4). In words: cell-based or functional assay.
The target is the same in test [3]. In words: capture ELISA, biotin-IL-21 at 0.14 nM. In general terms: An ELISA detects its analyte on a solid surface through an enzyme-linked reagent.
The target is the same in test [4]. The test can be described thus: capture ELISA, biotin-IL-21 at 1.2 nM.
The target is the same in test [5]. The test can be described thus: capture ELISA, biotin-IL-21 at 11 nM.
For test [6] the target is unchanged. The test can be described thus: capture ELISA, biotin-IL-21 at 0.05 nM.
For test [7] the target is unchanged. In words: capture ELISA, biotin-IL-21 at 3.7 nM.
For test [8] the target is unchanged. In words: capture ELISA, biotin-IL-21 at 33 nM.
The target is the same in test [9]. In words: capture ELISA, biotin-IL-21 at 0.41 nM.

Sequence of human IL-21 (human) (Q9HBE4 32-162): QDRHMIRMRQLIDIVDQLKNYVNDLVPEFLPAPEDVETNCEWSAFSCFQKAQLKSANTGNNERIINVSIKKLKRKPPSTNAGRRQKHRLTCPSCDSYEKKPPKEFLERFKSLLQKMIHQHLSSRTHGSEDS
Sequence of rabbit IL-21 (rabbit) (chain, as listed by the source limits assumed): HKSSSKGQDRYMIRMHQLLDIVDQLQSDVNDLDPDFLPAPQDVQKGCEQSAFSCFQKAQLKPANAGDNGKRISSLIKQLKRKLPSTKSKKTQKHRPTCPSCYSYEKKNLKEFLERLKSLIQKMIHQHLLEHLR
Sequence of cynomolgus monkey IL-21 (cynomolgus monkey) (Q9HBE4 other isoform, or with tags, fused parts or gaps): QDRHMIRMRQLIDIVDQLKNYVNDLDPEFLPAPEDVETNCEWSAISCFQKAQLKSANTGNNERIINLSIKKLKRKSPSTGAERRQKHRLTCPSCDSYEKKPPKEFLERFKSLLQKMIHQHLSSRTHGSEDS

As for “human IL-21R:Fc chimera (R&D Systems, cat #991-R2) (from UniProt Q9HBE5 20-232) (Fc fusion)”, in test [1], the IC50, IM9 pan-STAT-luciferase reporter assay, IL-21 at 66.67 pM worked out at 3920 pM. The substance further came in with an IC50, IM9 pan-STAT-luciferase reporter assay, IL-21 at 66.67 pM with mouse IL-21 (mouse) of 3530 pM. The same substance showed an IC50, IM9 pan-STAT-luciferase reporter assay, IL-21 at 66.67 pM with rabbit IL-21 (rabbit) of 321 pM. Further, in the test with human IL-21 (human) [2], the % of maximum IL-21-induced B cell proliferation at 0.1 nM inhibitor (SDEV 15.8) is 83%, the % of maximum IL-21-induced B cell proliferation at 0.21 nM inhibitor (SDEV 10.8) worked out at 99%, the % of maximum IL-21-induced B cell proliferation at 0.42 nM inhibitor (SDEV 6.43) is 87% and the % of maximum IL-21-induced B cell proliferation at 0.83 nM inhibitor (SDEV 6.33) came out at 109%. Besides, in the test with human IL-21 (human) [2], the % of maximum IL-21-induced B cell proliferation at 1.67 nM inhibitor (SDEV 12.6) amounted to 90%, the % of maximum IL-21-induced B cell proliferation at 3.33 nM inhibitor (SDEV 13.7) was 103%, the % of maximum IL-21-induced B cell proliferation at 13.3 nM inhibitor (SDEV 13.8) amounted to 77% and the % of maximum IL-21-induced B cell proliferation at 53.3 nM inhibitor (SDEV 6.2) was determined as 83%. The substance also displayed an IC50, IM9 pan-STAT-luciferase reporter assay, IL-21 at 66.67 pM with human IL-21 (human) [2] of 271 pM.
Regarding human IgG4 isotype control antibody, the OD at 560 nm with human IL-21 (human) [3] turned out to be 0.06 OD. In the test with human IL-21 (human) [4], this substance yielded an OD at 560 nm of 0.06 OD. The OD at 560 nm with human IL-21 (human) [5] is 0.06 OD. This substance showed an OD at 560 nm with human IL-21 (human) [6] of 0.06 OD. This substance gave an OD at 560 nm with human IL-21 (human) [7] of 0.06 OD. In addition, the OD at 560 nm with human IL-21 (human) [8] is 0.06 OD. The substance further yielded an OD at 560 nm in the test with human IL-21 (human) [9] of 0.06 OD. In the test with human IL-21 (human) [2], this substance returned a % of maximum IL-21-induced B cell proliferation at 0.1 nM inhibitor (SDEV 5.34) of 96%, a % of maximum IL-21-induced B cell proliferation at 0.21 nM inhibitor (SDEV 10.3) of 115%, a % of maximum IL-21-induced B cell proliferation at 0.42 nM inhibitor (SDEV 17.1) of 107% and a % of maximum IL-21-induced B cell proliferation at 0.83 nM inhibitor (SDEV 15.3) of 114%. In addition, in the test with human IL-21 (human) [2], the % of maximum IL-21-induced B cell proliferation at 1.67 nM inhibitor (SDEV 4.78) was found to be 108%, the % of maximum IL-21-induced B cell proliferation at 3.33 nM inhibitor (SDEV 18.7) worked out at 119%, the % of maximum IL-21-induced B cell proliferation at 6.67 nM inhibitor (SDEV 17.9) is 103% and the % of maximum IL-21-induced B cell proliferation at 13.3 nM inhibitor (SDEV 6.21) was 101%. In the test with human IL-21 (human) [2], this substance showed a % of maximum IL-21-induced B cell proliferation at 26.7 nM inhibitor (SDEV 11.2) of 96%; a fold increase of plasma cells (CD38 high, IgD low), donor 1, 26.7 nM antibody (IL-21 without antibody: 176) of 174 fold; a fold increase of plasma cells (CD38 high, IgD low), donor 2, 26.7 nM antibody (IL-21 without antibody: 114) of 108 fold; a fold increase of plasma cells (CD38 high, IgD low), donor 3, 26.7 nM antibody (IL-21 without antibody: 47) of 47 fold. Moreover, in the test with human IL-21 (human) [2], the fold increase of plasma cells (CD38 high, IgD low), donor 4, 26.7 nM antibody (IL-21 without antibody: 68) came out at 66 fold and the fold increase of plasma cells (CD38 high, IgD low), donor 5, 26.7 nM antibody (IL-21 without antibody: 22) is 23 fold.

Source of the values: patent US20150266954A1.
